Data on two molecules can be found in patent publication US20140223606, “COMPOSITIONS AND METHODS COMPRISING SEQUENCES HAVING MEGANUCLEASE ACTIVITY” (PIONEER HI BRED INTERNATIONAL INC, published 2014).

Settings in all cases: tags: NLS, 6xHis
One series addresses T1, LIG3-4(B70) (artificial).
T1 chain: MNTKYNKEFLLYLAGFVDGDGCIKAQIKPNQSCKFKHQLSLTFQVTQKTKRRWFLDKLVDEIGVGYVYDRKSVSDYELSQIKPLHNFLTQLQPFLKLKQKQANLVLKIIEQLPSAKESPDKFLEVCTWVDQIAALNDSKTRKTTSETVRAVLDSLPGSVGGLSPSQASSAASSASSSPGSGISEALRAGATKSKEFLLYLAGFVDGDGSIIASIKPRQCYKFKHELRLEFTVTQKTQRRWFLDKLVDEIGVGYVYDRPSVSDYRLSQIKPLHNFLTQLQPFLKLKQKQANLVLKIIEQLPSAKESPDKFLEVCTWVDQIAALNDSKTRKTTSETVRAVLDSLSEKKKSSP
The series can be described thus: cell_activity; yeast 30 C; 22 C: 4. As to the method: (§1) A 3 mL culture of selective media (MP Biomedical) was inoculated with a single colony of the yeast screening strain and grown at 30° C. overnight. On the following day, a 50 ml YPD culture (MP Biomedical) was started with 2 ml of the overnight culture and grown at 30° C. overnight. On the following day, the cells were harvested by centrifugation at 4000 rpm. The cells were resuspended in 100 ml ice cold water and centrifuged again. The cells were then washed in 1.2 M sorbitol, followed by treatment with 2 ml of 10 mM Tris pH 8.0, 1 mM EDTA, 100 mM Lithium acetate, 10 mM DTT, 0.6M sorbitol for 30 minutes at 30° C. with shaking. The cells were recovered by centrifugation, washed in 40 ml 1.2M sorbitol and finally resuspended in 250 microliters of 1.2M sorbitol. 50 microliter aliquots were transferred to test tubes on ice. Up to 5 microliters of DNA (100-500 nanograms) were added. The suspension was transferred to a 0.2 cm electroporation cuvette, on ice. Electroporation was performed with a pulse charge at 1.5 kV, 200 ohms, 25 microF (pulse time of 5 milliseconds). 1 mL YPD media (MP Biomedical) was added and the cells were allowed to recover at 30° C. for 1-2 hr. The cells were centrifuged, resuspended in 100 uL 1M sorbitol and plated on selective media lacking leucine and containing 2% galactose. The resulting yeast colonies were incubated at various temperatures ranging from 22 to 37 degrees Celsius for 7-10 days. I-CreI and meganucleases derived from it have maximal activity at or above 37 degrees Celsius. Screening was performed at a range of temperatures from 22 to 37 degrees in order to observe increases in activity at lower temperatures which are relevant to certain biological systems (eg. plant cells, plant cell cultures, etc). At that time the red/white sectoring phenotype, indicative of meganuclease activity was observed. Colonies with increased white sectoring over the parental meganuclease (indicating colonies expressing a meganuclease with increased meganuclease activity), also referred to as “hits” and sometimes completely white, were isolated for further analysis.

In another series the target is T2, LIG3-4(B76) (artificial).
T2 chain: T1 chain with K71G, P258K
The series can be described thus: cell_activity; yeast 30 C; 22 C: 4. The protocol: as §1

The target of another series is T3, LIG3-4(B82) (artificial).
T3 chain: T1 chain with S209C, P258K
Description: cell_activity; yeast 30 C; 22 C: 4. The protocol: as §1

For the next series, the target named is T4, LIG3-4(B78) (artificial).
T4 chain: T1 chain with K50Q, K71P, P258K, K345N, K346N
Description: cell_activity; yeast 30 C; 22 C: 4. The protocol:
as §1

The target of another series is T5, ZM6.3(H3) (artificial).
T5 chain: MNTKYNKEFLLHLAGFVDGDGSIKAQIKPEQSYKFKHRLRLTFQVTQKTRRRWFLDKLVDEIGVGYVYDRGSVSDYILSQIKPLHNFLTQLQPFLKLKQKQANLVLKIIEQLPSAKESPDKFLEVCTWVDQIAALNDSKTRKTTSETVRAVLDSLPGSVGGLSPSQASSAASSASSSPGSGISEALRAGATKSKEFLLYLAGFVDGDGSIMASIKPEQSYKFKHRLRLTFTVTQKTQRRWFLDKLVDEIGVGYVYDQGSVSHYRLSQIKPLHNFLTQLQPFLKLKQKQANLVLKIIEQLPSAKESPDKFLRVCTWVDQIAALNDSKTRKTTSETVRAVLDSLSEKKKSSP
The series can be described thus: cell_activity; yeast 37 C; 28 C: 2. The protocol: as §1
A total of 15 Zm6.3 variants with increased activity were confirmed in the yeast system (as described in Example 6). Increased activity was observed across a range of temperatures: 28 degrees Celsius, 30 degrees Celsius and 37 degrees Celsius, as shown in Table 15.

Where a chain is given by its changes, count along the chain named.

B1: LIG3-4 recognition site (dsDNA)
DNA 1: ATATACCTCACACGTACGCGTA
DNA 2: TACGCGTACGTGTGAGGTATAT
Regarding B1, the activity with LIG3-4(B70), in the series with LIG3-4(B76), with LIG3-4(B82) and with LIG3-4(B78) was 4 score 0-4 each time.

B2: ZM6.3 recognition site (dsDNA)
DNA 1: CAGGCTCTCGTAAATGCGCCTG
DNA 2: CAGGCGCATTTACGAGAGCCTG
For B2, the activity in the series with ZM6.3(H3) is 4 score 0-4.
